Laboratory results from US20260078185A1 (DYNAMICURE BIOTECHNOLOGY, published 2026).
One block for each binder: values may come before it.

Assays:
[1] = biological target: T1, mouse VISTA recombinant protein (Sino Biological Inc., Cat. #51550-M08H), biotinylated (mouse, UniProt Q9D659 33-191, biotinylated using EZ-LINK NHS-PEG4 biotin); experiment: BLI (Octet QKe), biotinylated VISTA on streptavidin sensors, antibody at 5 µg/ml
T1 construct: Bought protein; also called mouse VISTA protein
T1 sequence (looked up): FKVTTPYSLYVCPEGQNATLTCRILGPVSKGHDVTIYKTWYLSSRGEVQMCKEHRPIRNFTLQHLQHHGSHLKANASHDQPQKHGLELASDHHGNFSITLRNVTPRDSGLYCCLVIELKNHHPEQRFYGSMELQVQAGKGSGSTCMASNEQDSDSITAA
Description: (§1) Method: The binding affinity of anti-VISTA antibodies was determined with bio-layer interferometry using Octet QKe (ForteBio). Human VISTA recombinant protein (Sino Biological Inc., Cat. #13482-H08H) mouse VISTA (Sino Biological Inc., Cat. #51550-M08H) were biotinylated using EZ-LINK NHS-PEG4 biotin (Thermo Fisher Scientific). Streptavidin biosensors (ForteBio) were used to load biotinylated VISTA protein (300 seconds at 5 μg/ml). The baseline measurement was stabilized for 60 seconds in 1× kinetics buffer (ForteBio) before anti-VISTA antibodies at 5 μg/ml were allowed to associate for 300 seconds with captured protein. Then the sensors were dissociated in 1× kinetics buffer for 600 seconds. Data analysis was performed on ForteBio Data Analysis HT 11.1 software.

[2] = biological target: T2, Human VISTA recombinant protein (Sino Biological Inc., Cat. #13482-H08H), biotinylated (human, UniProt Q9H7M9 33-194, biotinylated using EZ-LINK NHS-PEG4 biotin); experiment: as above
T2 construct: Bought protein
T2 sequence: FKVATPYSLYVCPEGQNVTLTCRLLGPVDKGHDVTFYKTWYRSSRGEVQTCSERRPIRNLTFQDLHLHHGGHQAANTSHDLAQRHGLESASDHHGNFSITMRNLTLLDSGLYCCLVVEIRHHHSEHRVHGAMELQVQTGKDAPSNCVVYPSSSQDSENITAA
Description: as §1

[3] = biological target: T1, mouse VISTA recombinant protein (Sino …); experiment: BLI (Octet QKe), biotinylated VISTA on streptavidin sensors; the parental antibody is the affinity comparator
Description: as §1

[4] = biological target: T3, mouse VISTA expressed on Jurkat cells (mouse, UniProt Q9D659 33-308); experiment: flow cytometry on Jurkat cells expressing mouse VISTA (FIG. 3A-D); the parental antibody is the binding comparator
T3 construct: whole, on cells; also called Jurkat-mouse VISTA; mouse VISTA expressing cells
T3 sequence (looked up): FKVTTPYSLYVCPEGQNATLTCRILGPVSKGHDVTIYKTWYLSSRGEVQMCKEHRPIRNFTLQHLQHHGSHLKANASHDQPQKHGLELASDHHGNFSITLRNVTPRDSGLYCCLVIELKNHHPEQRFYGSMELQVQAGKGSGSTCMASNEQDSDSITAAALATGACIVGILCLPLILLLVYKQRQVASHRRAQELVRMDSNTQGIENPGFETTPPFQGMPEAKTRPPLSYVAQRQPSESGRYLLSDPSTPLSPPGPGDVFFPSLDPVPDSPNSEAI

[5] = biological target: T3, mouse VISTA expressed on Jurkat cells; experiment: flow cytometry on Jurkat cells expressing mouse VISTA (FIG. 3E)

- binding result [1]: binds
B1: 9F9 humanized anti-VISTA antibody VH7/VL7 (antibody, V domains shown)
VH: QVQFVQSGAEVKKPGASVKVSCKASGYTFTGYWMQWVKQAPGQRLEWIGAIYPGDGDTRYSQKFKGKVTLTADTSASTAYMELSSLRSEDTAVYYCARRDYGAWFAYWGQGTLVTVSS
VL: DIKVTQSPSSLSASVGDRVTITCKASQDINSYLSWYQQKPGKAPKTLIYRANRLVDGVPSRFSGSGSGQEYTLTISSLQPEDFATYYCLQYDEFPYTFGQGTKVEIK
notes: also called 9E9 anti-VISTA VH7/VL7

- binding result [1]: binds
B2: 9F9 humanized anti-VISTA antibody VH9/VL9 (antibody, V domains shown)
VH: QVQFVQSGAEVKKPGSSVKVSCKASGYTFSGYWMQWVKQAPGQGLEWIGAIYPGDGDTRYSQKFKGKVTLTADESTSTAYMELSSLRSEDTAVYYCARRDYGAWFAYWGQGTLVTVSS
VL: DIKVTQSPSSLSASVGDRVTITCKASQDINSYLSWYQQKPGKAPKTLIYRANRLVDGVPSRFSGSGSGQDYTFTISSLQPEDIATYYCLQYDEFPYTFGQGTKVEIK
notes: also called 9E9 anti-VISTA VH9/VL9

- binding result [2]: binds
- binding result [3]: binds
- binding result [4]: binds
B3: 9F9 parental anti-VISTA antibody (VH0/VL0) (antibody, V domains shown)
VH: QVQFQQSGAELARPGASVKLSCKASGYTFTGYWMQWVKQRPGQGLEWIGAIYPGDGDTRYSQKFKGKVTLTADKSSSTAYMQLSSLASEDSAVYYCARRDYGAWFAYWGQGTLVTVSA
VL: DIKVTQSPSSMYASLGERVTITCKASQDINSYLSWFQQKPGKSPKTLIYRANRLVDGVPSRFSGSGSGQDYSLTISSLDYEDMGIYYCLQYDEFPYTFGGGTKLEIK
notes: also called 9E9 parental antibody; parental 9F9 (VH0/VL0)

- binding result [1]: binds
B4: 9F9 humanized anti-VISTA antibody VH14/VL15 (antibody, V domains shown)
VH: QVQLVQSGAEVMKPGASVKISCKASGYTFTGYWMQWVRQRPGQGLEWIGAIYPGDGDTRYSQKFKGKATMTADTSISTAYMELSRLRSDDTAVYYCARRDYGAWFAYWGAGTTVTVSS
VL: DIVMTQSPSSLSASVGERVTITCKASQDINSYLSWFQQKPGKAPKTLIYRANRLVDGVPSRFSGSGSGTDFTFTISSVQPEDLAIYYCLQYDEFPYTFGGGTKLEIK
notes: also called 9E9 anti-VISTA VH14/VL15

- binding result [5]: binds
B5: 9F9 VH15/VL15 hIgG1-LALA (antibody, V domains shown)
VH: QVQLVQSGAEVMKPGASVKLSCKASGYTFTGYWMQWVKQRPGQGLEWIGAIYPGDGDTRYSQKFKGKATMTADTSISTAYMELSRLRSDDSAVYYCARRDYGAWFAYWGAGTTVTVSS
VL: DIVMTQSPSSLSASVGERVTITCKASQDINSYLSWFQQKPGKAPKTLIYRANRLVDGVPSRFSGSGSGTDFTFTISSVQPEDLAIYYCLQYDEFPYTFGGGTKLEIK
notes: also called 9E9 VH15/VL15 using the humanized hIgG1-LALA constant region

- binding result [5]: binds
B6: 9F9 VH15/VL15 hIgG2 (antibody, V domains shown)
VH: QVQLVQSGAEVMKPGASVKLSCKASGYTFTGYWMQWVKQRPGQGLEWIGAIYPGDGDTRYSQKFKGKATMTADTSISTAYMELSRLRSDDSAVYYCARRDYGAWFAYWGAGTTVTVSS
VL: DIVMTQSPSSLSASVGERVTITCKASQDINSYLSWFQQKPGKAPKTLIYRANRLVDGVPSRFSGSGSGTDFTFTISSVQPEDLAIYYCLQYDEFPYTFGGGTKLEIK
notes: also called 9E9 VH15/VL15 using the IgG2 constant region

- binding result [1]: binds
B7: 9F9 humanized anti-VISTA antibody VH15/VL15 (antibody, V domains shown)
VH: QVQLVQSGAEVMKPGASVKLSCKASGYTFTGYWMQWVKQRPGQGLEWIGAIYPGDGDTRYSQKFKGKATMTADTSISTAYMELSRLRSDDSAVYYCARRDYGAWFAYWGAGTTVTVSS
VL: DIVMTQSPSSLSASVGERVTITCKASQDINSYLSWFQQKPGKAPKTLIYRANRLVDGVPSRFSGSGSGTDFTFTISSVQPEDLAIYYCLQYDEFPYTFGGGTKLEIK
notes: also called 9E9 anti-VISTA VH15/VL15
